Measurements taken from the supplement of paper PMC7877785.
± gives the uncertainty stated by the source.

Test: self-splicing fitness, log relative to wild type (ln ratio); higher = more splicing; Tetrahymena group I intron in knt gene, E. coli kanamycin selection, DiMSum; sequences stand for … in CUCUCU…GGAGGGAAAAGUUAUCAGGCAUGCACCUGGUAGCUAGUCUUUAAACCAAUAGAUUGCAUCGGUUUAAAAGGCAAGACCGUCAAAUUGCGGGAAAGGGGUCAACAGCCGUUCAGUACCAAGUCUCAGGGGAAACUUUGAGAUGGCCUUGCAAAGGGUAUGGUAAUAAGCUGACGGACAUGGUCCUAACCACGCAGCCAAGUCCUAAGUCAACAGAUCUUCUGUUGAUAUGGAUGCAGUUCACAGACUAAAUGUCGGUCGGGGAAGAUGUAUUCUUCUCAUAAGAUAUAGUCGGACCUCUCCUUAAUGGGAGCUAGCGGAUGAAGUGAUGCAACACUGGAGCCGCUGGGAACUAAUUUGUAUGCGAAAGUAUAUUGAUUAGUUUUGGAGUACUCGUGGUCG
Method in brief: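 The eight P1ex-region nucleotides of an intron in the knt kanamycin-resistance gene on pET-22b(+) were all randomised and the library put into E. coli BL21(DE3). Six replicate transformations were grown overnight at 37°C or 30°C on LB agar with or without 25 μg/mL kanamycin, together with 100 μg/mL carbenicillin, 50 μM IPTG and 0.2% rhamnose. Colonies were pooled and amplicon-sequenced on an Illumina HiSeq 2500. Fitness from DiMSum is the error-weighted combination of wild-type-normalised replicate fold changes, kanamycin over none.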

Sequence	self-splicing fitness (ln) (30 °C)	self-splicing fitness (ln) (37 °C)
ACCAAGCAAUAUUACGUAUU	-3.77 ± 0.14	-2.07 ± 0.12
ACGCAGCAAUAUUACGAAGG	-2.61 ± 0.13	-1.3 ± 0.14
AUGCAGCAAUAUUACGUCAC		-1.09 ± 0.16
AAACAGCAAUAUUACGGCGC	-1.43 ± 0.11	-0.594 ± 0.16
GUACAGCAAUAUUACGCGGU	-3.17 ± 0.15	-2.31 ± 0.15
GGCCAGCAAUAUUACGUUCA	-3.23 ± 0.23	-0.905 ± 0.19
GUUUAGCAAUAUUACGUGAC		-0.596 ± 0.41
UUGCAGCAAUAUUACGUGCG	-3.18 ± 0.16	-1.43 ± 0.14
AUCUAGCAAUAUUACGGUUU	-1.13 ± 0.13	-0.53 ± 0.13
CUUAAGCAAUAUUACGGUUA		-2.16 ± 0.29
ACAGAGCAAUAUUACGACAG	-3.72 ± 0.31	-1.95 ± 0.2
UGGCAGCAAUAUUACGUAGC	-4.18 ± 0.29	-2.28 ± 0.19
CUGAAGCAAUAUUACGAUCU	-3.3 ± 0.16	-3.2 ± 0.28
UGUCAGCAAUAUUACGUUAA	-0.609 ± 0.1	-0.411 ± 0.11
CUACAGCAAUAUUACGAAGG	-1.22 ± 0.1	-1.49 ± 0.14
GAAGAGCAAUAUUACGUGGA	-2.05 ± 0.18	-2.54 ± 0.26
UCUCAGCAAUAUUACGCAAU	-2.45 ± 0.23	-1.89 ± 0.23
CAGUAGCAAUAUUACGCUGU	-2.72 ± 0.17	-2.99 ± 0.28
GGGCAGCAAUAUUACGGAAU	-1.49 ± 0.11	-1.3 ± 0.19
CCCUAGCAAUAUUACGUCGG	-3.32 ± 0.22	-2.57 ± 0.23
UAACAGCAAUAUUACGUAGU	-3.35 ± 0.14	-2.7 ± 0.18
UUCUAGCAAUAUUACGUGUC	-3.35 ± 0.19	-3.01 ± 0.21
UAGUAGCAAUAUUACGCUUG	-0.659 ± 0.092	-0.506 ± 0.13
GUCGAGCAAUAUUACGACUU	-1.88 ± 0.27	-1.3 ± 0.32
UGGUAGCAAUAUUACGAUAU	-2.62 ± 0.16	-1.62 ± 0.16

Sequence	self-splicing fitness (ln) (30 °C)	self-splicing fitness (ln) (37 °C)
UUCGAGCAAUAUUACGCGUA	-1.94 ± 0.14	-1.51 ± 0.12
CAAGAGCAAUAUUACGCAUG	-3.69 ± 0.44	-2.53 ± 0.29
AAAGAGCAAUAUUACGCAAA	-3.16 ± 0.43	-2.75 ± 0.34
AAUUAGCAAUAUUACGCGAA	-1.34 ± 0.15	-1.89 ± 0.25
UGGCAGCAAUAUUACGGAGA	-2.9 ± 0.42	-1.46 ± 0.41
UACCAGCAAUAUUACGAACU	-2.26 ± 0.1	-0.819 ± 0.11
UAAAAGCAAUAUUACGAGUC	-3.45 ± 0.27	-3.74 ± 0.39
ACACAGCAAUAUUACGGGUC	-4.34 ± 0.21	-2.17 ± 0.13
GACCAGCAAUAUUACGCACC	-0.0772 ± 0.089	-1.06 ± 0.11
GCCCAGCAAUAUUACGCUUG	-3.45 ± 0.2	-1.79 ± 0.17
UUCAAGCAAUAUUACGCUAC	-3 ± 0.25	-1.52 ± 0.26
AAUUAGCAAUAUUACGGCUG	-0.324 ± 0.082	0.339 ± 0.12
GGGAAGCAAUAUUACGCUUC	-3.32 ± 0.4	
UUAGAGCAAUAUUACGUGUU	-4.76 ± 0.32	-2.53 ± 0.28
UGCUAGCAAUAUUACGUUUG	-1.48 ± 0.074	-0.163 ± 0.092
CGACAGCAAUAUUACGACUU	-1.1 ± 0.059	-0.881 ± 0.066
CUUCAGCAAUAUUACGGUUC	-3.39 ± 0.2	-1.69 ± 0.18
AUUCAGCAAUAUUACGAGGA	-2.81 ± 0.32	-1.63 ± 0.16
CUACAGCAAUAUUACGGUGU	-3.23 ± 0.13	-2.49 ± 0.14
UAUGAGCAAUAUUACGGUCA	-2.22 ± 0.25	-1.65 ± 0.25
AUAUAGCAAUAUUACGGCAC	-2 ± 0.24	0.951 ± 0.25
UCAGAGCAAUAUUACGCCUG	-3.63 ± 0.3	
GAGCAGCAAUAUUACGGUGU	-2.84 ± 0.093	-1.56 ± 0.09
GACGAGCAAUAUUACGACCU	-2.01 ± 0.15	0.0378 ± 0.16
GUCUAGCAAUAUUACGAAAC	-0.862 ± 0.13	-0.29 ± 0.14

Sequence	self-splicing fitness (ln) (30 °C)	self-splicing fitness (ln) (37 °C)
AAAAAGCAAUAUUACGACAC	-0.799 ± 0.094	-0.575 ± 0.13
ACCAAGCAAUAUUACGUUAA	-3.17 ± 0.18	-2.46 ± 0.17
UGAGAGCAAUAUUACGAUGA		-2.48 ± 0.3
CGAAAGCAAUAUUACGCAAU	-3 ± 0.13	-3.64 ± 0.26
CGUGAGCAAUAUUACGCCUC	-2.12 ± 0.31	-1.07 ± 0.4
UGUAAGCAAUAUUACGGGUC	-3.01 ± 0.41	
GAAAAGCAAUAUUACGGCGG	-1.86 ± 0.1	-1.59 ± 0.1
GCCAAGCAAUAUUACGCAAG	-2.89 ± 0.17	-1.7 ± 0.2
UCACAGCAAUAUUACGAAGA	-1.18 ± 0.085	-1.09 ± 0.093
CCGCAGCAAUAUUACGUGUA	-3.25 ± 0.17	-1.38 ± 0.13
CGAUAGCAAUAUUACGCAAU	-3.43 ± 0.27	-2.26 ± 0.25
AAUGAGCAAUAUUACGUAAU	-3.08 ± 0.17	-1.33 ± 0.15
GGGUAGCAAUAUUACGAUCU	-1.64 ± 0.092	-0.576 ± 0.11
GUUAAGCAAUAUUACGGUCG	-1.32 ± 0.066	-0.767 ± 0.094
UUUAAGCAAUAUUACGGGAA	-1.63 ± 0.094	-0.806 ± 0.095
CCUUAGCAAUAUUACGCCUG		-2.89 ± 0.34
AGUCAGCAAUAUUACGGGUC	-1.27 ± 0.11	-1.43 ± 0.15
CCAAAGCAAUAUUACGGCGC	-3.65 ± 0.34	-2.49 ± 0.29
GUCAAGCAAUAUUACGCUGU	-3.26 ± 0.13	-2.42 ± 0.19
GCGAAGCAAUAUUACGGUCA	-1.7 ± 0.11	-1.36 ± 0.1
UUAGAGCAAUAUUACGGAGC	-3.62 ± 0.29	-2.31 ± 0.22
UAGUAGCAAUAUUACGAUUU	-1.45 ± 0.1	-0.988 ± 0.12
ACGUAGCAAUAUUACGCUCA	-0.72 ± 0.12	0.189 ± 0.11
UCCCAGCAAUAUUACGUGGG	-3.37 ± 0.1	-2.85 ± 0.16
AUGUAGCAAUAUUACGCGUC	-2.6 ± 0.22	-2.32 ± 0.3

Sequence	self-splicing fitness (ln) (30 °C)	self-splicing fitness (ln) (37 °C)
GUAAAGCAAUAUUACGUGGA	-2.51 ± 0.095	-1.38 ± 0.073
GUCGAGCAAUAUUACGAAAC	-2.72 ± 0.41	-0.657 ± 0.37
CUUGAGCAAUAUUACGCACC		-1.68 ± 0.4
AUGUAGCAAUAUUACGAGCG	-1.23 ± 0.11	-1.8 ± 0.14
GCAGAGCAAUAUUACGCAUG		-2.3 ± 0.39
GAGAAGCAAUAUUACGGGUU	-1.88 ± 0.11	-1.87 ± 0.16
CGUGAGCAAUAUUACGGAGU	-3.12 ± 0.23	-1.14 ± 0.4
UGAUAGCAAUAUUACGCAAU	-2.87 ± 0.49	-1.62 ± 0.36
GUAAAGCAAUAUUACGAAGG	-3.13 ± 0.13	-1.92 ± 0.17
CAUGAGCAAUAUUACGCGUG	-4.92 ± 0.36	-2.71 ± 0.26
CGAAAGCAAUAUUACGCAGC	-3 ± 0.24	-3.68 ± 0.33
UGUGAGCAAUAUUACGGUGU	-3 ± 0.31	-2.84 ± 0.24
AGGCAGCAAUAUUACGCACU	-1.3 ± 0.11	-0.863 ± 0.17
GCCAAGCAAUAUUACGUUUA	-2.97 ± 0.19	-2.28 ± 0.18
UAAAAGCAAUAUUACGACAA	-0.243 ± 0.1	0.272 ± 0.11
ACACAGCAAUAUUACGUAAG	-2.06 ± 0.062	-0.736 ± 0.069
UUAUAGCAAUAUUACGAGUU		-1.96 ± 0.2
GAGUAGCAAUAUUACGUGCU	-3.42 ± 0.19	-2.31 ± 0.2
ACAUAGCAAUAUUACGCUAA	-2.26 ± 0.23	-0.742 ± 0.34
UCGGAGCAAUAUUACGGUCU	-0.916 ± 0.37	
AGCAAGCAAUAUUACGAUAC		-1.72 ± 0.46
GCCGAGCAAUAUUACGGAAC	-1.82 ± 0.12	-0.538 ± 0.12
CAUAAGCAAUAUUACGCCUU	-3.7 ± 0.19	-1.96 ± 0.17
ACGAAGCAAUAUUACGAUUU	-1.28 ± 0.094	-0.317 ± 0.1
